B1: Rdh54 (Rad homolog 54), yeast Snf2-related homologous recombination factor (enzyme, UniProt P38086 1-958, looked up)
chain: MAVISVKPRRREKILQEVKNSSVYQTVFDSGTTQMQIPKYENKPFKPPRRVGSNKYTQLKPTATAVTTAPISKAKVTVNLKRSISAGPTLNLAKKPNNLSSNENTRYFTIMYRKPTTKKHKTWSGDGYATLKASSDKLCFYNEAGKFLGSSMLPSDSDSLFETLFKAGSNEVQLDYELKENAEIRSAKEALSQNMGNPSPPTTSTTETVPSTKNDGGKYQMPLSQLFSLNTVKRFKSVTKQTNEHMTTVPKTSQNSKAKKYYPVFDVNKIDNPIVMNKNAAAEVDVIVDPLLGKFLRPHQREGVKFMYDCLMGLARPTIENPDIDCTTKSLVLENDSDISGCLLADDMGLGKTLMSITLIWTLIRQTPFASKVSCSQSGIPLTGLCKKILVVCPVTLIGNWKREFGKWLNLSRIGVLTLSSRNSPDMDKMAVRNFLKVQRTYQVLIIGYEKLLSVSEELEKNKHLIDMLVCDEGHRLKNGASKILNTLKSLDIRRKLLLTGTPIQNDLNEFFTIIDFINPGILGSFASFKRRFIIPITRARDTANRYNEELLEKGEERSKEMIEITKRFILRRTNAILEKYLPPKTDIILFCKPYSQQILAFKDILQGARLDFGQLTFSSSLGLITLLKKVCNSPGLVGSDPYYKSHIKDTQSQDSYSRSLNSGKLKVLMTLLEGIRKGTKEKVVVVSNYTQTLDIIENLMNMAGMSHCRLDGSIPAKQRDSIVTSFNRNPAIFGFLLSAKSGGVGLNLVGASRLILFDNDWNPSVDLQAMSRIHRDGQKKPCFIYRLVTTGCIDEKILQRQLMKNSLSQKFLGDSEMRNKESSNDDLFNKEDLKDLFSVHTDTKSNTHDLICSCDGLGEEIEYPETNQQQNTVELRKRSTTTWTSALDLQKKMNEAATNDDAKKSQYIRQCLVHYKHIDPARQDELFDEVITDSFTELKDSITFAFVKPGEICLREQ
notes: also called Tid1
B2: fluorescently tagged human Rad51 (A11C Rad51 labeled with Alexa Fluor 555-maleimide) (enzyme, UniProt Q06609 1-339, looked up)
chain: MAMQMQLEANCDTSVEEESFGPQPISRLEQSGINANDVKKLEEAGFHTVEAVAYAPKKELINIKGISEAKADKILAEAAKLVPMGFTTATEFHQRRSEIIQITTGSKELDKLLQGGIETGSITEMFGEFRTGKTQICHTLAVTCQLPIDRGGGEGKAMYIDTEGTFRPERLLAVAERYGLSGSDVLDNVAYARAFNTDHQTQLLYQASAMMVESRYALLIVDSATALYRTDYSGRGELSARQMHLARFLRMLLRLADEFGVAVVITNQVVAQVDGAAMFAADPKKPIGGNIIAHASTTRLYLRKGRGETRISKIYDSPSLPEAEAMFAINADGVGDAKD
modifications: Alexa Fluor 555-maleimide on Cys 11 (A11C)
notes: also called fluorescent Rad51; Alexa Fluor 555-Rad51

How the values were obtained:
[1] = target: the molecule itself; assay: two-colour quantum dot labeling of Rdh54 complexes on DNA curtains, TIRFM colocalisation (self-association)
[2] = target: the molecule itself; assay: cryo-electron microscopy of fluorescent Rad51 (self-association into rings)
Description: The biochemically active form of Rad51 and related recombinases is an extended helical filament bound to DNA (P8, P33). Cyro-electron microscopy was used to determine whether the fluorescently tagged version of Rad51 formed structures consistent with the known forms of the wild-type protein. First, fluorescent Rad51 was mixed with double-stranded, linearized φX174 in the presence of ATP. The reaction mixes were then applied to a carbon-coated grid, flash frozen in liquid ethane, and visualized with cryo-EM (P9). […] In addition, the protein that was not bound to the DNA molecules was present as a ring-like structure, as previously reported (P16). Rad511 and several closely related proteins, are known to form ring-like structures under various reaction conditions and it is thought that these rings contain from 6-8 monomers of protein (P13-P15, P34, P35).

Row | Protein | binding result [1] | binding result [2]
1 | B1 | binds | –
2 | B2 | – | binds

Reference: patent US20080274905A1 (TRUSTEES OF COLUMBIA UNIVERSITY IN THE CITY OF NEW YORK, published 2008)
